B1: TRIM33: human RING type E3 ligase expressed from lentiviral vector (protein, UniProt Q9UPN9 1-1127, looked up)
E3 ubiquitin-protein ligase …: MAENKGGGEAESGGGGSGSAPVTAGAAGPAAQEAEPPLTAVLVEEEEEEGGRAGAEGGAAGPDDGGVAAASSGSAQAASSPAASVGTGVAGGAVSTPAPAPASAPAPGPSAGPPPGPPASLLDTCAVCQQSLQSRREAEPKLLPCLHSFCLRCLPEPERQLSVPIPGGSNGDIQQVGVIRCPVCRQECRQIDLVDNYFVKDTSEAPSSSDEKSEQVCTSCEDNASAVGFCVECGEWLCKTCIEAHQRVKFTKDHLIRKKEDVSESVGASGQRPVFCPVHKQEQLKLFCETCDRLTCRDCQLLEHKEHRYQFLEEAFQNQKGAIENLLAKLLEKKNYVHFAATQVQNRIKEVNETNKRVEQEIKVAIFTLINEINKKGKSLLQQLENVTKERQMKLLQQQNDITGLSRQVKHVMNFTNWAIASGSSTALLYSKRLITFQLRHILKARCDPVPAANGAIRFHCDPTFWAKNVVNLGNLVIESKPAPGYTPNVVVGQVPPGTNHISKTPGQINLAQLRLQHMQQQVYAQKHQQLQQMRMQQPPAPVPTTTTTTQQHPRQAAPQMLQQQPPRLISVQTMQRGNMNCGAFQAHQMRLAQNAARIPGIPRHSGPQYSMMQPHLQRQHSNPGHAGPFPVVSVHNTTINPTSPTTATMANANRGPTSPSVTAIELIPSVTNPENLPSLPDIPPIQLEDAGSSSLDNLLSRYISGSHLPPQPTSTMNPSPGPSALSPGSSGLSNSHTPVRPPSTSSTGSRGSCGSSGRTAEKTSLSFKSDQVKVKQEPGTEDEICSFSGGVKQEKTEDGRRSACMLSSPESSLTPPLSTNLHLESELDALASLENHVKIEPADMNESCKQSGLSSLVNGKSPIRSLMHRSARIGGDGNNKDDDPNEDWCAVCQNGGDLLCCEKCPKVFHLTCHVPTLLSFPSGDWICTFCRDIGKPEVEYDCDNLQHSKKGKTAQGLSPVDQRKCERLLLYLYCHELSIEFQEPVPASIPNYYKIIKKPMDLSTVKKKLQKKHSQHYQIPDDFVADVRLIFKNCERFNEMMKVVQVYADTQEINLKADSEVAQAGKAVALYFEDKLTEIYSDRTFAPLPEFEQEEDDGEVTEDSDEDFIQPRRKRLKSDERPVHIK
B2: RNF41: human RING type E3 ligase expressed from lentiviral vector (protein, UniProt Q9H4P4 1-317, looked up)
E3 ubiquitin-protein ligase …: MGYDVTRFQGDVDEDLICPICSGVLEEPVQAPHCEHAFCNACITQWFSQQQTCPVDRSVVTVAHLRPVPRIMRNMLSKLQIACDNAVFGCSAVVRLDNLMSHLSDCEHNPKRPVTCEQGCGLEMPKDELPNHNCIKHLRSVVQQQQTRIAELEKTSAEHKHQLAEQKRDIQLLKAYMRAIRSVNPNLQNLEETIEYNEILEWVNSLQPARVTRWGGMISTPDAVLQAVIKRSLVESGCPASIVNELIENAHERSWPQGLATLETRQMNRRYYENYVAKRIPGKQAVVVMACENQHMGDDMVQEPGLVMIFAHGVEEI
modifications: lentiviral expression
notes: human RING type E3 ligase expressed from lentiviral vector
B3: TRIM34: human RING type E3 ligase expressed from lentiviral vector (protein, UniProt Q9BYJ4 1-488, looked up)
E3 ubiquitin-protein ligase …: MASKILLNVQEEVTCPICLELLTEPLSLDCGHSLCRACITVSNKEAVTSMGGKSSCPVCGISYSFEHLQANQHLANIVERLKEVKLSPDNGKKRDLCDHHGEKLLLFCKEDRKVICWLCERSQEHRGHHTVLTEEVFKECQEKLQAVLKRLKKEEEEAEKLEADIREEKTSWKYQVQTERQRIQTEFDQLRSILNNEEQRELQRLEEEEKKTLDKFAEAEDELVQQKQLVRELISDVECRSQWSTMELLQDMSGIMKWSEIWRLKKPKMVSKKLKTVFHAPDLSRMLQMFRELTAVRCYWVDVTLNSVNLNLNLVLSEDQRQVISVPIWPFQCYNYGVLGSQYFSSGKHYWEVDVSKKTAWILGVYCRTYSRHMKYVVRRCANRQNLYTKYRPLFGYWVIGLQNKCKYGVFEESLSSDPEVLTLSMAVPPCRVGVFLDYEAGIVSFFNVTSHGSLIYKFSKCCFSQPVYPYFNPWNCPAPMTLCPPSS

Tested on: coxsackievirus B3 (CVB3-GFP)
Format: cell-based
Conditions: HeLa cells, replicate R1; for Percent Infected R1: GFP-positive cells within RFP-positive gate

Molecule	Percent Infected R1 [%]	Z score R1
B1	55.3	−0.424
B2	93.5	0.06
B3	62.2	−0.336

Source: patent US12104181B2, “Compositions and methods for treating viral infections targeting TRIM7” (THE BOARD OF REGENTS OF THE UNIVERSITY OF TEXAS SYSTEM, priority 2021, dated 2024)
